Test results published in PMC5389482.
pKd: −log10 of the molar value.

Test system: ParF (plasmid TP228 (segregation module))
Assay: fluorescence polarization
Conditions: 5 mM ATP, 5 mM Mg acetate, 150 mM K glutamate; 150 mM potassium glutamate (50-350 mM in salt series), pH 7.5, 5 mM magnesium acetate, 5 mM ATP or ADP, 25 C, 1 nM DNA

Question: How did the pKd turn out when “AATTACTCAATTACTCAATT (double strand) [20-mer]” was run?
Answer: Its pKd is 6.81.
